Measurements as given in patent US20140357577A1, “HIV Membrane Fusion Inhibitors” (priority 2011, published 2014).
Starred links: 1 amine or outer side, 2 acyl side, 3 side chain; linkers in the order of their positions; H or OH if unused. Positions of bridges follow the written chain, without caps; N, C: chain ends. Non-standard residues stand in square brackets, D forms with d. *: point of attachment. pXylylene = c1cc(C[*:2])ccc1C[*:1]; Palmitoyl = CCCCCCCCCCCCCCCC(=O)*; tBuAla = CC(C)(C)C[C@H](N)C(=O)O; Suc = O=C(CCC(=O)[*:2])[*:1]; Hexanoyl = CCCCCC(=O)*; Pentanoyl = CCCCC(=O)*; Butyryl = CCCC(=O)*

B1: peptide 85 (peptide)
peptide: Butyryl-ECYLACIEELIRKAQEQQEKNEAALR-NH2
modifications: linker 2-6 via pXylylene
SMILES: CCCC(=O)N[C@@H](CCC(=O)O)C(=O)N[C@H]1CSCc2ccc(cc2)CSC[C@@H](C(=O)N[C@H](C(=O)N[C@@H](CCC(=O)O)C(=O)N[C@@H](CCC(=O)O)C(=O)N[C@@H](CC(C)C)C(=O)N[C@H](C(=O)N[C@@H](CCCNC(=N)N)C(=O)N[C@@H](CCCCN)C(=O)N[C@@H](C)C(=O)N[C@@H](CCC(N)=O)C(=O)N[C@@H](CCC(=O)O)C(=O)N[C@@H](CCC(N)=O)C(=O)N[C@@H](CCC(N)=O)C(=O)N[C@@H](CCC(=O)O)C(=O)N[C@@H](CCCCN)C(=O)N[C@@H](CC(N)=O)C(=O)N[C@@H](CCC(=O)O)C(=O)N[C@@H](C)C(=O)N[C@@H](C)C(=O)N[C@@H](CC(C)C)C(=O)N[C@@H](CCCNC(=N)N)C(N)=O)[C@@H](C)CC)[C@@H](C)CC)NC(=O)[C@H](C)NC(=O)[C@H](CC(C)C)NC(=O)[C@H](Cc2ccc(O)cc2)NC1=O
B2: peptide 86 (peptide)
peptide: Hexanoyl-ECYLACIEELIRKAQEQQEKNEAALR-NH2
modifications: linker 2-6 via pXylylene
SMILES: CCCCCC(=O)N[C@@H](CCC(=O)O)C(=O)N[C@H]1CSCc2ccc(cc2)CSC[C@@H](C(=O)N[C@H](C(=O)N[C@@H](CCC(=O)O)C(=O)N[C@@H](CCC(=O)O)C(=O)N[C@@H](CC(C)C)C(=O)N[C@H](C(=O)N[C@@H](CCCNC(=N)N)C(=O)N[C@@H](CCCCN)C(=O)N[C@@H](C)C(=O)N[C@@H](CCC(N)=O)C(=O)N[C@@H](CCC(=O)O)C(=O)N[C@@H](CCC(N)=O)C(=O)N[C@@H](CCC(N)=O)C(=O)N[C@@H](CCC(=O)O)C(=O)N[C@@H](CCCCN)C(=O)N[C@@H](CC(N)=O)C(=O)N[C@@H](CCC(=O)O)C(=O)N[C@@H](C)C(=O)N[C@@H](C)C(=O)N[C@@H](CC(C)C)C(=O)N[C@@H](CCCNC(=N)N)C(N)=O)[C@@H](C)CC)[C@@H](C)CC)NC(=O)[C@H](C)NC(=O)[C@H](CC(C)C)NC(=O)[C@H](Cc2ccc(O)cc2)NC1=O
B3: peptide 88 (peptide)
peptide: Suc-ECYLRCIEELIRKAQEQQEKNEAALRGSGK(Palmitoyl)-NH2
modifications: linker 2-6 via pXylylene
SMILES: CCCCCCCCCCCCCCCC(=O)NCCCC[C@H](NC(=O)CNC(=O)[C@H](CO)NC(=O)CNC(=O)[C@H](CCCNC(=N)N)NC(=O)[C@H](CC(C)C)NC(=O)[C@H](C)NC(=O)[C@H](C)NC(=O)[C@H](CCC(=O)O)NC(=O)[C@H](CC(N)=O)NC(=O)[C@H](CCCCN)NC(=O)[C@H](CCC(=O)O)NC(=O)[C@H](CCC(N)=O)NC(=O)[C@H](CCC(N)=O)NC(=O)[C@H](CCC(=O)O)NC(=O)[C@H](CCC(N)=O)NC(=O)[C@H](C)NC(=O)[C@H](CCCCN)NC(=O)[C@H](CCCNC(=N)N)NC(=O)[C@@H](NC(=O)[C@H](CC(C)C)NC(=O)[C@H](CCC(=O)O)NC(=O)[C@H](CCC(=O)O)NC(=O)[C@@H](NC(=O)[C@@H]1CSCc2ccc(cc2)CSC[C@H](NC(=O)[C@H](CCC(=O)O)NC(=O)CCC(=O)O)C(=O)N[C@@H](Cc2ccc(O)cc2)C(=O)N[C@@H](CC(C)C)C(=O)N[C@@H](CCCNC(=N)N)C(=O)N1)[C@@H](C)CC)[C@@H](C)CC)C(N)=O
B4: peptide 90 (peptide)
peptide: Suc-ECYLACIEELIRKAQEQQEKNEAALR-NH2
modifications: linker 2-6 via pXylylene
SMILES: CC[C@H](C)[C@H](NC(=O)[C@@H]1CSCc2ccc(cc2)CSC[C@H](NC(=O)[C@H](CCC(=O)O)NC(=O)CCC(=O)O)C(=O)N[C@@H](Cc2ccc(O)cc2)C(=O)N[C@@H](CC(C)C)C(=O)N[C@@H](C)C(=O)N1)C(=O)N[C@@H](CCC(=O)O)C(=O)N[C@@H](CCC(=O)O)C(=O)N[C@@H](CC(C)C)C(=O)N[C@H](C(=O)N[C@@H](CCCNC(=N)N)C(=O)N[C@@H](CCCCN)C(=O)N[C@@H](C)C(=O)N[C@@H](CCC(N)=O)C(=O)N[C@@H](CCC(=O)O)C(=O)N[C@@H](CCC(N)=O)C(=O)N[C@@H](CCC(N)=O)C(=O)N[C@@H](CCC(=O)O)C(=O)N[C@@H](CCCCN)C(=O)N[C@@H](CC(N)=O)C(=O)N[C@@H](CCC(=O)O)C(=O)N[C@@H](C)C(=O)N[C@@H](C)C(=O)N[C@@H](CC(C)C)C(=O)N[C@@H](CCCNC(=N)N)C(N)=O)[C@@H](C)CC
B5: peptide 91 (peptide)
peptide: Pentanoyl-ECYLRCIEELIRKAQEQQEKNEAALR-NH2
modifications: linker 2-6 via pXylylene
SMILES: CCCCC(=O)N[C@@H](CCC(=O)O)C(=O)N[C@H]1CSCc2ccc(cc2)CSC[C@@H](C(=O)N[C@H](C(=O)N[C@@H](CCC(=O)O)C(=O)N[C@@H](CCC(=O)O)C(=O)N[C@@H](CC(C)C)C(=O)N[C@H](C(=O)N[C@@H](CCCNC(=N)N)C(=O)N[C@@H](CCCCN)C(=O)N[C@@H](C)C(=O)N[C@@H](CCC(N)=O)C(=O)N[C@@H](CCC(=O)O)C(=O)N[C@@H](CCC(N)=O)C(=O)N[C@@H](CCC(N)=O)C(=O)N[C@@H](CCC(=O)O)C(=O)N[C@@H](CCCCN)C(=O)N[C@@H](CC(N)=O)C(=O)N[C@@H](CCC(=O)O)C(=O)N[C@@H](C)C(=O)N[C@@H](C)C(=O)N[C@@H](CC(C)C)C(=O)N[C@@H](CCCNC(=N)N)C(N)=O)[C@@H](C)CC)[C@@H](C)CC)NC(=O)[C@H](CCCNC(=N)N)NC(=O)[C@H](CC(C)C)NC(=O)[C@H](Cc2ccc(O)cc2)NC1=O
B6: peptide 92 (peptide)
peptide: Pentanoyl-ECYLCLIEELIRKAQEQQEKNEAALR-NH2
modifications: linker 2-5 via pXylylene
SMILES: CCCCC(=O)N[C@@H](CCC(=O)O)C(=O)N[C@H]1CSCc2ccc(cc2)CSC[C@@H](C(=O)N[C@@H](CC(C)C)C(=O)N[C@H](C(=O)N[C@@H](CCC(=O)O)C(=O)N[C@@H](CCC(=O)O)C(=O)N[C@@H](CC(C)C)C(=O)N[C@H](C(=O)N[C@@H](CCCNC(=N)N)C(=O)N[C@@H](CCCCN)C(=O)N[C@@H](C)C(=O)N[C@@H](CCC(N)=O)C(=O)N[C@@H](CCC(=O)O)C(=O)N[C@@H](CCC(N)=O)C(=O)N[C@@H](CCC(N)=O)C(=O)N[C@@H](CCC(=O)O)C(=O)N[C@@H](CCCCN)C(=O)N[C@@H](CC(N)=O)C(=O)N[C@@H](CCC(=O)O)C(=O)N[C@@H](C)C(=O)N[C@@H](C)C(=O)N[C@@H](CC(C)C)C(=O)N[C@@H](CCCNC(=N)N)C(N)=O)[C@@H](C)CC)[C@@H](C)CC)NC(=O)[C@H](CC(C)C)NC(=O)[C@H](Cc2ccc(O)cc2)NC1=O
B7: peptide 7 (peptide)
peptide: Suc-ANYLALIEALIRAAQEQQEKNEAALR-NH2
SMILES: CC[C@H](C)[C@H](NC(=O)[C@H](CC(C)C)NC(=O)[C@H](C)NC(=O)[C@H](CCC(=O)O)NC(=O)[C@@H](NC(=O)[C@H](CC(C)C)NC(=O)[C@H](C)NC(=O)[C@H](CC(C)C)NC(=O)[C@H](Cc1ccc(O)cc1)NC(=O)[C@H](CC(N)=O)NC(=O)[C@H](C)NC(=O)CCC(=O)O)[C@@H](C)CC)C(=O)N[C@@H](CCCNC(=N)N)C(=O)N[C@@H](C)C(=O)N[C@@H](C)C(=O)N[C@@H](CCC(N)=O)C(=O)N[C@@H](CCC(=O)O)C(=O)N[C@@H](CCC(N)=O)C(=O)N[C@@H](CCC(N)=O)C(=O)N[C@@H](CCC(=O)O)C(=O)N[C@@H](CCCCN)C(=O)N[C@@H](CC(N)=O)C(=O)N[C@@H](CCC(=O)O)C(=O)N[C@@H](C)C(=O)N[C@@H](C)C(=O)N[C@@H](CC(C)C)C(=O)N[C@@H](CCCNC(=N)N)C(N)=O
B8: peptide 11 (peptide)
peptide: Suc-ANYLALIEAL[tBuAla]RAAQEQQEKNEAALR-NH2
SMILES: CC[C@H](C)[C@H](NC(=O)[C@H](CC(C)C)NC(=O)[C@H](C)NC(=O)[C@H](CC(C)C)NC(=O)[C@H](Cc1ccc(O)cc1)NC(=O)[C@H](CC(N)=O)NC(=O)[C@H](C)NC(=O)CCC(=O)O)C(=O)N[C@@H](CCC(=O)O)C(=O)N[C@@H](C)C(=O)N[C@@H](CC(C)C)C(=O)N[C@@H](CC(C)(C)C)C(=O)N[C@@H](CCCNC(=N)N)C(=O)N[C@@H](C)C(=O)N[C@@H](C)C(=O)N[C@@H](CCC(N)=O)C(=O)N[C@@H](CCC(=O)O)C(=O)N[C@@H](CCC(N)=O)C(=O)N[C@@H](CCC(N)=O)C(=O)N[C@@H](CCC(=O)O)C(=O)N[C@@H](CCCCN)C(=O)N[C@@H](CC(N)=O)C(=O)N[C@@H](CCC(=O)O)C(=O)N[C@@H](C)C(=O)N[C@@H](C)C(=O)N[C@@H](CC(C)C)C(=O)N[C@@H](CCCNC(=N)N)C(N)=O

The binders below were run against gp41 of HIV-1 strain HXB2D with mutation V38A (HIV-1 strain HXB2D, UniProt P04578) (assay: cell-based or functional assay).
In the case of B1, the “fold change in EC50, HIV-HXB2D V38A mutant” value (“fold change in EC50” below) is reported as 3 fold.
Ac-ANYAALIEALIRKAQEQQEKNEAALR-NH2 [peptide 5] was tested, and the “fold change in EC50” value was 53 fold.
B2 was tested, and the “fold change in EC50” value was 2 fold.
B3 was tested, and the “fold change in EC50” value was 1 fold.
Ac-ACYAACIEALIRAAQEQQEKNEAALR-NH2 (linker 2-6 via 1,4‑dimethylnaphthyl) [peptide 89] was tested, and the “fold change in EC50” value was 75 fold.
B4 was tested, and the “fold change in EC50” value was 6 fold.
In the case of B5, the “fold change in EC50” value is reported as 2 fold.
B6 was tested, and the “fold change in EC50” value was 2 fold.
For Ac-ANYLALIEALIRAAQEQQEKNEAALR-NH2 [peptide 6], the “fold change in EC50” value was 51 fold.
In the case of B7, the “fold change in EC50” value is reported as 33 fold.
Ac-ENYLALIEALIRAAQEQQEKNEAALR-NH2 [peptide 8] was tested, and the “fold change in EC50” value was 46 fold.
In the case of Ac-ENYLALIEALIRAAQEQQEKNEAALL-NH2 [peptide 9], the “fold change in EC50” value is reported as 72 fold.
In the case of Ac-ANYLALIEELIRAAQEQQEKNEAALR-NH2 [peptide 10], the “fold change in EC50” value is reported as 50 fold.
B8 was tested, and the “fold change in EC50” value was 26 fold.
